Among the data in US12221480 are percent of cells in the CAR+ gate, paired-competition value (Octet signal of the second antibody per paragraph 256) and EC50 values, retold here.

In assay [1] the target is anti-CD20 (Rituxan) chimeric antigen receptor ACT2. The experiment in a line: flow cytometry, panel Donor 4 (δ3-08): cells transduced with the anti-CD20 CAR ACT2, stained with rat anti-Rituximab-FITC; no % sign is printed.
For assay [2] the target is unchanged. Put plainly: flow cytometry, panel Donor 4 (δ3-23): cells transduced with the anti-CD20 CAR ACT2, stained with rat anti-Rituximab-FITC; no % sign is printed. On the technique in general: A flow cytometer gives signals particle by particle.
Assay [3] shares this target. Put plainly: flow cytometry, panel Donor 3 (δ3-23): cells transduced with the anti-CD20 CAR ACT2, stained with rat anti-Rituximab-FITC; no % sign is printed.
The target of assay [4] is recombinant human soluble γ2 δ3TCR-FC (wild type) (human) (UniProt B7Z8K6). The experiment in a line: Octet, γ2δ3TCR-hFc captured on anti-human Fc biosensor; row antibody δ3-23 taken as first (saturating), column antibody as second; 5 µg/mL each.
The target is the same in assay [5]. Put plainly: Octet, γ2δ3TCR-hFc captured on anti-human Fc biosensor; row antibody δ3-42 taken as first (saturating), column antibody as second; 5 µg/mL each. In general terms: In BLI a coated tip is dipped into the sample, and binding shifts an interference pattern.
Assay [6] deals with γ2δ3 TCR-hFc mutant S2 (D26N, K85L in the Vδ3 chain) (human) (UniProt B7Z8K6). The experiment in a line: Luminex beads; TCR-hFc captured by goat anti-human Fc; antibody titrated.
The target in assay [7] is recombinant human soluble γ2 δ3TCR-FC (wild type) (human) (UniProt B7Z8K6). The description is as above.
Assay [8] addresses γ2δ3 TCR-hFc mutant S4 (E18Q in the Vδ3 chain) (human) (UniProt B7Z8K6). The description is as above.
For assay [9], the target named is γ2δ3 TCR-hFc mutant S9 (E67Q, D70N, R75Q, R95Q, E97Q in the Vδ3 chain) (human) (UniProt B7Z8K6). The description is as above.
In assay [10] the target is γ2δ3 TCR-hFc mutant S1 (D10N in the Vδ3 chain) (human) (UniProt B7Z8K6). The description is as above.
Assay [11] addresses γ2δ3 TCR-hFc mutant S7 (D57N, R65Q in the Vδ3 chain) (human) (UniProt B7Z8K6). The description is as above.
Assay [12] deals with γ2δ3 TCR-hFc mutant S6 (R75Q, R95Q in the Vδ3 chain) (human) (UniProt B7Z8K6). The assay is described as above.
For assay [13], the target named is γ2δ3 TCR-hFc mutant S5 (D70N, E67Q in the Vδ3 chain) (human) (UniProt B7Z8K6). The description is as above.
Assay [14] deals with recombinant human soluble γ2 δ3TCR-FC (wild type) (human) (UniProt B7Z8K6). The experiment in a line: Octet, γ2δ3TCR-hFc captured on anti-human Fc biosensor; row antibody δ3-58 taken as first (saturating), column antibody as second; 5 µg/mL each; self pair.
The target is the same in assay [15]. The experiment in a line: Octet, γ2δ3TCR-hFc captured on anti-human Fc biosensor; row antibody δ3-31 taken as first (saturating), column antibody as second; 5 µg/mL each.
Assay [16] shares this target. Put plainly: Octet, γ2δ3TCR-hFc captured on anti-human Fc biosensor; row antibody δ3-08 taken as first (saturating), column antibody as second; 5 µg/mL each.
Assay [17] has as its target γ2δ3 TCR-hFc mutant S8 (K79L, E18Q, H88F in the Vδ3 chain) (human) (UniProt B7Z8K6). The experiment in a line: Luminex beads; TCR-hFc captured by goat anti-human Fc; antibody titrated; extrapolated value, no saturation achieved.
Assay [18] has as its target γ2δ3 TCR-hFc mutant S3 (K79L, H88F in the Vδ3 chain) (human) (UniProt B7Z8K6). The assay is described as above.
The target in assay [19] is γ2δ3 TCR-hFc mutant S10 (K3A, K79L, H88T in the Vδ3 chain) (human) (UniProt B7Z8K6). The assay is described as above.
Assay [20] concerns the target γ2δ3 TCR-hFc mutant S11 (K79L, L82K, H88F in the Vδ3 chain) (human) (UniProt B7Z8K6). Described as above.
The target of assay [21] is recombinant human soluble γ2 δ3TCR-FC (wild type) (human) (UniProt B7Z8K6). The experiment in a line: Octet, γ2δ3TCR-hFc captured on anti-human Fc biosensor; row antibody δ3-58 taken as first (saturating), column antibody as second; 5 µg/mL each.
Assay [22] has the same target. The experiment in a line: Octet, γ2δ3TCR-hFc captured on anti-human Fc biosensor; row antibody δ3-42 taken as first (saturating), column antibody as second; 5 µg/mL each; self pair.
The target in assay [23] is γ2δ3 TCR-hFc mutant S9 (E67Q, D70N, R75Q, R95Q, E97Q in the Vδ3 chain) (human) (UniProt B7Z8K6). Put plainly: Luminex beads; TCR-hFc captured by goat anti-human Fc; antibody titrated; extrapolated value, no saturation achieved.
In assay [24] the target is γ2δ3 TCR-hFc mutant S8 (K79L, E18Q, H88F in the Vδ3 chain) (human) (UniProt B7Z8K6). The experiment in a line: Luminex beads; TCR-hFc captured by goat anti-human Fc; antibody titrated.
Assay [25] deals with γ2δ3 TCR-hFc mutant S3 (K79L, H88F in the Vδ3 chain) (human) (UniProt B7Z8K6). The assay is described as above.
The target in assay [26] is γ2δ3 TCR-hFc mutant S10 (K3A, K79L, H88T in the Vδ3 chain) (human) (UniProt B7Z8K6). The assay is described as above.
Assay [27] addresses γ2δ3 TCR-hFc mutant S11 (K79L, L82K, H88F in the Vδ3 chain) (human) (UniProt B7Z8K6). The description is as above.
For assay [28], the target named is recombinant human soluble γ2 δ3TCR-FC (wild type) (human) (UniProt B7Z8K6). The experiment in a line: Octet, γ2δ3TCR-hFc captured on anti-human Fc biosensor; row antibody δ3-08 taken as first (saturating), column antibody as second; 5 µg/mL each; self pair.

aRitxmab-FITC (antibody): the figures for the percent of cells in the CAR+ gate in assay [1], in assay [2] and in assay [3] were 70.7%, 73.5% and 83.1%, respectively.

B1: δ3-58 (antibody, V domains shown)
VH: EVKLVESGGGLVQPGGSLKLSCAASGFTFSSYAMSWVRQTPEKRLEWVAYIRDGGGGTYYPDTVEGRFTISRDNAKNTLYLQMSSLKSEDTAMYYCARHPPMNDWFLYWGQGTLVTVSA
VL: DIQMTQSPASLSVSVGETVTITCRASENIYSHLAWYQQKQGKSPQLLVYAATNLADGVPSRFSGSGSGTQYSLKINSLQSEDFGSYYCQHFWGTPYTFGGGTKLEIKR
B1: the paired-competition value (Octet signal of the second antibody per paragraph 256) turned out to be 0.03 in assay [4]; 0.06 in [5]; 0.03 in assay [14]; 0.37 in assay [15]; 0.22 in [16]. Besides, the EC50 (in general, the concentration at which the effect is half-maximal) was 0.03 nM in [6]; 0.03 nM in assay [7]; 0.02 nM in assay [8]; 0.05 nM in assay [9]; 0.02 nM in assay [10]; 0.04 nM in assay [11]. The half-maximal effective concentration (EC50) was 0.02 nM in assay [12]; 0.02 nM in assay [13]; 3370 nM in assay [17]; 508 nM in assay [18]; 336 nM in assay [19]; 136 nM in assay [20].

B2: δ3-42 (antibody, V domains shown)
VH: DVQLQESGPDLVKPSQSLSLTCTVTGYSITSGYNWHWIRQFPGNKLEWMGYIHYSGNTDYNPSLRSRISITRDTSKNQFFLHLNSVPTEDTATYYCARSGITTDWYFDVWGAGTTVTVSS
VL: QIVLSQSPAILSASPGEKVTMTCRASSSVNYMHWYQQKPGSSPKPWIYATSNLASGVPARFSGSGSGTSYSLTISKVEAEDAATYYCQQWSSHQPTFGAGTKLELK
As to B2, the paired-competition value (Octet signal of the second antibody per paragraph 256) was determined as 0.04 in assay [4]; 0.03 in assay [21]; 0.04 in assay [22]; 0.35 in assay [15]; 0.21 in assay [16]. The concentration for a half-maximal effect (EC50) was 0.17 nM in assay [6]; 0.05 nM in assay [7]; 0.05 nM in assay [8]; 0.07 nM in assay [10]; 0.15 nM in [11]; 0.13 nM in assay [12]. The EC50 is 0.08 nM in [13]; 258 nM in assay [17]; 106 nM in assay [18]; 449 nM in [19]; 49.3 nM in assay [23]; 199 nM in assay [20].

B3: δ3-08 (antibody, V domains shown)
VH: EEKLEESGGGLVQPGGSMKLSCVASGFIFSIYWMNWVRQSPEKGLEWVGQIRLKSDNYATHYAESVKGRFTISRDDSKSSVYLQMNNLRAEDTGIYYCMYYGSSYERFAYWGQGTLVTVSA
VL: DIQMIQSPASLSVSVGETVTITCRASENIYSNLAWYQQKQGKSPQLLVYVATKLADGVPSRFSGSGSGTQYSLKINSLQSEDFGSYYCQHFWGTPPWTFGGGTKLEIK
With B3, the paired-competition value (Octet signal of the second antibody per paragraph 256) was 0.04 in [4], 0.04 in assay [21], 0.24 in assay [15] and 0.16 in assay [28]. Moreover, the EC50 in assay [6] amounted to 0.07 nM; in assay [24], 0.04 nM; in assay [25], 0.05 nM; in assay [26], 2.5 nM; in [7], 0.06 nM; in assay [8] it was 0.06 nM. Further, the half-maximal effective concentration (EC50) in assay [9] was determined as 0.07 nM; in [10], 0.08 nM; in assay [11] it was 0.07 nM; in assay [27], 0.03 nM; in [12], 0.06 nM; in assay [13], 0.05 nM.
